Data set [1] has as its target Tomato SlDXS1, truncated version lacking the N-terminal plastid targeting peptide, 6xHis-tagged (Solanum lycopersicum (tomato)). Kind of data set: cross-linking.
For data set [2] the target is unchanged. Kind of data set: dynamic light scattering.
Data set [3] deals with the molecule itself. Kind of data set: SDS-PAGE with non-denaturing loading buffer and immunoblot.
The data set “cross-linking” deals with the molecule itself. As to the kind of experiment: cross-linking.

By stoichiometry N is commonly meant the number of molecules, sites or subunits per partner or assembly. For “Tomato SlDXS1, truncated version lacking the N-terminal plastid targeting peptide, 6xHis-tagged (enzyme)”, the stoichiometry N in data set [1] and in data set [2] was 2 in each case.

B1: Tomato SlDXS1, full-length protein with C-terminal myc tag (pGWB420-SlDXS1), expressed in N. benthamiana leaves (enzyme)
chain: SLSESGEYYTQRPPTPILDTVNYPIHMKNLSLKELKQLADELRSDTIFNVSKTGGHLGSSLGVVELTVALHYVFNAPQDRILWDVGHQSYPHKILTGRRDKMSTLRQTDGLAGFTKRSESEYDCFGTGHSSTTISAGLGMAVGRDLKGRNNNVIAVIGDGAMTAGQAYEAMNNAGYLDSDMIVILNDNRQVSLPTATLDGPVAPVGALSSALSRLQSNRPLRELREVAKGVTKQIGGPMHELAAKVDEYARGMISGSGSTLFEELGLYYIGPVDGHNIDDLIAILKEVRSTKTTGPVLIHVVTEKGRGYPYAERAADKYHGVAKFDPATGKQFKASAKTQSYTTYFAEALIAEAEADKDIVAIHAAMGGGTGMNLFHRRFPTRCFDVGIAEQHAVTFAAGLACEGIKPFCAIYSSFMQRAYDQVVHDVDLQKLPVRFAMDRAGLVGADGPTHCGAFDVTYMACLPNMVVMAPSDEAELFHMVATAAAIDDRPSCFRYPRGNGIGVELPAGNKGIPLEVGKGRILIEGERVALLGYGSAVQNCLDAAIVLESRGLQVTVADARFCKPLDHALIRSLAKSHEVLITVEEGSIGGFGSHVVQFMALDGLLDGKLKWRPIVLPDRYIDHGSPVDQLAEAGLTPSHIAATVFNILGQTREALEVMT
In the case of B1, the “stoichiometry N” value in data set [3] amounted to 2.

B2: Escherichia coli deoxyxylulose 5-phosphate synthase (EcDXS), 6xHis-tagged, full length (enzyme)
chain: MSFDIAKYPTLALVDSTQELRLLPKESLPKLCDELRRYLLDSVSRSSGHFASGLGTVELTVALHYVYNTPFDQLIWDVGHQAYPHKILTGRRDKIGTIRQKGGLHPFPWRGESEYDVLSVGHSSTSISAGIGIAVAAEKEGKNRRTVCVIGDGAITAGMAFEAMNHAGDIRPDMLVILNDNEMSISENVGALNNHLAQLLSGKLYSSLREGGKKVFSGVPPIKELLKRTEEHIKGMVVPGTLFEELGFNYIGPVDGHDVLGLITTLKNMRDLKGPQFLHIMTKKGRGYEPAEKDPITFHAVPKFDPSSGCLPKSSGGLPSYSKIFGDWLCETAAKDNKLMAITPAMREGSGMVEFSRKFPDRYFDVAIAEQHAVTFAAGLAIGGYKPIVAIYSTFLQRAYDQVLHDVAIQKLPVLFAIDRAGIVGADGQTHQGAFDLSYLRCIPEMVIMTPSDENECRQMLYTGYHYNDGPSAVRYPRGNAVGVELTPLEKLPIGKGIVKRRGEKLAILNFGTLMPEAAKVAESLNATLVDMRFVKPLDEALILEMAASHEALVTVEENAIMGGAGSGVNEVLMAHRKPVPVLNIGLPDFFIPQGTQEEMRAELGLDAAGMEAKIKAWLA
Take B2: in the data set “cross-linking”, the “stoichiometry N” value came out at 2.

The values above are taken from paper doi:10.1101/2022.06.12.495819 (bioRxiv, 2022).
